Assays:
HeLa Kyoto [1] = experiment: solubility in G1/S (NP-40 vs SDS abundance) (log2 ratio); higher = more soluble; details: cell cycle stage: G1/S
HeLa Kyoto [2] = experiment: melting temperature (median over replicates), in situ; higher = more thermally stable
HeLa Kyoto [3] = experiment: solubility change mitosis vs G1/S (difference of NP-40 vs SDS log2 ratios) (log2 ratio difference); higher = more soluble in mitosis
HeLa Kyoto [4] = experiment: thermal stability score vs G1/S (z-score of summed log2 fold changes over temperatures); higher = more thermally stable than in G1/S
[5] = cell cycle stage: early G1 (4.5 h after nocodazole release)
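Wherever melting temperature (median over replicates), in situ is given: HeLa Kyoto cells synchronized by double thymidine or nocodazole block, proteins quantified by TMT10plex mass spectrometry, three independent biological replicates.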
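Wherever solubility change mitosis vs G1/S (difference of NP-40 vs SDS log2 ratios) is given: synchronized HeLa Kyoto cells (double thymidine block for G1/S, nocodazole release for mitosis), protein amounts in NP-40 versus SDS lysates quantified by mass spectrometry, three biological replicates.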
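Wherever solubility in G1/S (NP-40 vs SDS abundance) is given: HeLa Kyoto cells arrested at G1/S by double thymidine block, proteins quantified by TMT10plex mass spectrometry in mild NP-40 versus SDS extracts, three biological replicates.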
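Wherever thermal stability score vs G1/S (z-score of summed log2 fold changes over temperatures) is given: synchronized HeLa Kyoto cells, proteins quantified by TMT10plex mass spectrometry, three biological replicates, mitosis taken 0.5 h after nocodazole release, G1/S directly after double thymidine block.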

Sequence	solubility in G1/S (log2) (HeLa Kyoto [1])	melting temperature (HeLa Kyoto [2]; cell cycle stage: G1/S) [°C]	melting temperature (HeLa Kyoto [2]; cell cycle stage: mitosis) [°C]	solubility change mitosis (log2) (HeLa Kyoto [3])	thermal stability score (HeLa Kyoto [4]; [5])	thermal stability score (HeLa Kyoto [4]; cell cycle stage: mitosis)
MEPLAAYPLKCSGPRAKVFAVLLSIVLCTVTLFLLQLKFLKPKINSFYAFEVKDAKGRTVSLEKYKGKVSLVVNVASDCQLTDRNYLGLKELHKEFGPSHFSVLAFPCNQFGESEPRPSKEVESFARKNYGVTFPIFHKIKILGSEGEPAFRFLVDSSKKEPRWNFWKYLVNPEGQVVKFWKPEEPIEVIRPDIAALVRQVIIKKKEDL [GPX8]	0.0659	52.8	52.3	-0.208	3.63	4.95
MSQGDSNPAAIPHAAEDIQGDDRWMSQHNRFVLDCKDKEPDVLFVGDSMVQLMQQYEIWRELFSPLHALNFGIGGDTTRHVLWRLKNGELENIKPKVIVVWVGTNNHENTAEEVAGGIEAIVQLINTRQPQAKIIVLGLLPRGEKPNPLRQKNAKVNQLLKVSLPKLANVQLLDTDGGFVHSDGAISCHDMFDFLHLTGGGYAKICKPLHELIMQLLEETPEEKQTTIA [PAFAH1B2]	0.628	49.5	51	-0.079	-0.13	-0.102
MSEEIITPVYCTGVSAQVQKQRARELGLGRHENAIKYLGQDYEQLRVRCLQSGTLFRDEAFPPVPQSLGYKDLGPNSSKTYGIKWKRPTELLSNPQFIVDGATRTDICQGALGDCWLLAAIASLTLNDTLLHRVVPHGQSFQNGYAGIFHFQLWQFGEWVDVVVDDLLPIKDGKLVFVHSAEGNEFWSALLEKAYAKVNGSYEALSGGSTSEGFEDFTGGVTEWYELRKAPSDLYQIILKALERGSLLGCSIDISSVLDMEAITFKKLVKGHAYSVTGAKQVNYRGQVVSLIRMRNPWGEVEWTGAWSDSSSEWNNVDPYERDQLRVKMEDGEFWMSFRDFMREFTRLEICNLTPDALKSRTIRKWNTTLYEGTWRRGSTAGGCRNYPATFWVNPQFKIRLDETDDPDDYGDRESGCSFVLALMQKHRRRERRFGRDMETIGFAVYEVPPELVGQPAVHLKRDFFLANASRARSEQFINLREVSTRFRLPPGEYVVVPSTFEPNKEGDFVLRFFSEKSAGTVELDDQIQANLPDEQVLSEEEIDENFKALFRQLAGEDMEISVKELRTILNRIISKHKDLRTKGFSLESCRSMVNLMDRDGNGKLGLVEFNILWNRIRNYLSIFRKFDLDKSGSMSAYEMRMAIESAGFKLNKKLYELIITRYSEPDLAVDFDNFVCCLVRLETMFRFFKTLDTDLDGVVTFDLFKWLQLTMFA [CAPN1]	-0.203	55.9	56.5	-0.164	-0.914	-1.67
MPDYLGADQRKTKEDEKDDKPIRALDEGDIALLKTYGQSTYSRQIKQVEDDIQQLLKKINELTGIKESDTGLAPPALWDLAADKQTLQSEQPLQVARCTKIINADSEDPKYIINVKQFAKFVVDLSDQVAPTDIEEGMRVGVDRNKYQIHIPLPPKIDPTVTMMQVEEKPDVTYSDVGGCKEQIEKLREVVETPLLHPERFVNLGIEPPKGVLLFGPPGTGKTLCARAVANRTDACFIRVIGSELVQKYVGEGARMVRELFEMARTKKACLIFFDEIDAIGGARFDDGAGGDNEVQRTMLELINQLDGFDPRGNIKVLMATNRPDTLDPALMRPGRLDRKIEFSLPDLEGRTHIFKIHARSMSVERDIRFELLARLCPNSTGAEIRSVCTEAGMFAIRARRKIATEKDFLEAVNKVIKSYAKFSATPRYMTYN [PSMC2]	0.358	53.2	52	-0.143	1.24	0.521
MSKRHRLDLGEDYPSGKKRAGTDGKDRDRDRDREDRSKDRDRERDRGDREREREKEKEKELRASTNAMLISAGLPPLKASHSAHSTHSAHSTHSTHSAHSTHAGHAGHTSLPQCINPFTNLPHTPRYYDILKKRLQLPVWEYKDRFTDILVRHQSFVLVGETGSGKTTQIPQWCVEYMRSLPGPKRGVACTQPRRVAAMSVAQRVADEMDVMLGQEVGYSIRFEDCSSAKTILKYMTDGMLLREAMNDPLLERYGVIILDEAHERTLATDILMGVLKEVVRQRSDLKVIVMSATLDAGKFQIYFDNCPLLTIPGRTHPVEIFYTPEPERDYLEAAIRTVIQIHMCEEEEGDLLLFLTGQEEIDEACKRIKREVDDLGPEVGDIKIIPLYSTLPPQQQQRIFEPPPPKKQNGAIGRKVVVSTNIAETSLTIDGVVFVIDPGFAKQKVYNPRIRVESLLVTAISKASAQQRAGRAGRTRPGKCFRLYTEKAYKTEMQDNTYPEILRSNLGSVVLQLKKLGIDDLVHFDFMDPPAPETLMRALELLNYLAALNDDGDLTELGSMMAEFPLDPQLAKMVIASCDYNCSNEVLSITAMLSVPQCFVRPTEAKKAADEAKMRFAHIDGDHLTLLNVYHAFKQNHESVQWCYDNFINYRSLMSADNVRQQLSRIMDRFNLPRRSTDFTSRDYYINIRKALVTGYFMQVAHLERTGHYLTVKDNQVVQLHPSTVLDHKPEWVLYNEFVLTTKNYIRTCTDIKPEWLVKIAPQYYDMSNFPQCEAKRQLDRIIAKLQSKEYSQY [DHX15]	-0.42	53.9	53.7	0.272	0.104	1.61
MKEEKEHRPKEKRVTLLTPAGATGSGGGTSGDSSKGEDKQDRNKEKKEALSKVVIRRLPPTLTKEQLQEHLQPMPEHDYFEFFSNDTSLYPHMYARAYINFKNQEDIILFRDRFDGYVFLDNKGQEYPAIVEFAPFQKAAKKKTKKRDTKVGTIDDDPEYRKFLESYATDNEKMTSTPETLLEEIEAKNRELIAKKTTPLLSFLKNKQRMREEKREERRRREIERKRQREEERRKWKEEEKRKRKDIEKLKKIDRIPERDKLKDEPKIKVHRFLLQAVNQKNLLKKPEKGDEKELDKREKAKKLDKENLSDERASGQSCTLPKRSDSELKDEKPKRPEDESGRDYREREREYERDQERILRERERLKRQEEERRRQKERYEKEKTFKRKEEEMKKEKDTLRDKGKKAESTESIGSSEKTEKKEEVVKRDRIRNKDRPAMQLYQPGARSRNRLCPPDDSTKSGDSAAERKQESGISHRKEGGEE [UPF3B]	-0.279	50.6	50.5	0.245	0.0687	-0.398
MDGFAGSLDDSISAASTSDVQDRLSALESRVQQQEDEITVLKAALADVLRRLAISEDHVASVKKSVSSKGQPSPRAVIPMSCITNGSGANRKPSHTSAVSIAGKETLSSAAKSGTEKKKEKPQGQREKKEESHSNDQSPQIRASPSPQPSSQPLQIHRQTPESKNATPTKSIKRPSPAEKSHNSWENSDDSRNKLSKIPSTPKLIPKVTKTADKHKDVIINQEGEYIKMFMRGRPITMFIPSDVDNYDDIRTELPPEKLKLEWAYGYRGKDCRANVYLLPTGKIVYFIASVVVLFNYEERTQRHYLGHTDCVKCLAIHPDKIRIATGQIAGVDKDGRPLQPHVRVWDSVTLSTLQIIGLGTFERGVGCLDFSKADSGVHLCIIDDSNEHMLTVWDWQKKAKGAEIKTTNEVVLAVEFHPTDANTIITCGKSHIFFWTWSGNSLTRKQGIFGKYEKPKFVQCLAFLGNGDVLTGDSGGVMLIWSKTTVEPTPGKGPKGVYQISKQIKAHDGSVFTLCQMRNGMLLTGGGKDRKIILWDHDLNPEREIEVPDQYGTIRAVAEGKADQFLVGTSRNFILRGTFNDGFQIEVQGHTDELWGLATHPFKDLLLTCAQDRQVCLWNSMEHRLEWTRLVDEPGHCADFHPSGTVVAIGTHSGRWFVLDAETRDLVSIHTDGNEQLSVMRYSIDGTFLAVGSHDNFIYLYVVSENGRKYSRYGRCTGHSSYITHLDWSPDNKYIMSNSGDYEILYWDIPNGCKLIRNRSDCKDIDWTTYTCVLGFQVFGVWPEGSDGTDINALVRSHNRKVIAVADDFCKVHLFQYPCSKAKAPSHKYSAHSSHVTNVSFTHNDSHLISTGGKDMSIIQWKLVEKLSLPQNETVADTTLTKAPVSSTESVIQSNTPTPPPSQPLNETAEEESRISSSPTLLENSLEQTVEPSEDHSEEESEEGSGDLGEPLYEEPCNEISKEQAKATLLEDQQDPSPSS [EML4]	-0.0517	51	50.3	-0.0416	-1.11	-1.34
MATEIGSPPRFFHMPRFQHQAPRQLFYKRPDFAQQQAMQQLTFDGKRMRKAVNRKTIDYNPSVIKYLENRIWQRDQRDMRAIQPDAGYYNDLVPPIGMLNNPMNAVTTKFVRTSTNKVKCPVFVVRWTPEGRRLVTGASSGEFTLWNGLTFNFETILQAHDSPVRAMTWSHNDMWMLTADHGGYVKYWQSNMNNVKMFQAHKEAIREASFSPTDNKFATCSDDGTVRIWDFLRCHEERILRGHGADVKCVDWHPTKGLVVSGSKDSQQPIKFWDPKTGQSLATLHAHKNTVMEVKLNLNGNWLLTASRDHLCKLFDIRNLKEELQVFRGHKKEATAVAWHPVHEGLFASGGSDGSLLFWHVGVEKEVGGMEMAHEGMIWSLAWHPLGHILCSGSNDHTSKFWTRNRPGDKMRDRYNLNLLPGMSEDGVEYDDLEPNSLAVIPGMGIPEQLKLAMEQEQMGKDESNEIEMTIPGLDWGMEEVMQKDQKKVPQKKVPYAKPIPAQFQQAWMQNKVPIPAPNEVLNDRKEDIKLEEKKKTQAEIEQEMATLQYTNPQLLEQLKIERLAQKQVEQIQPPPSSGTPLLGPQPFPGQGPMSQIPQGFQQPHPSQQMPMNMAQMGPPGPQGQFRPPGPQGQMGPQGPPLHQGGGGPQGFMGPQGPQGPPQGLPRPQDMHGPQGMQRHPGPHGPLGPQGPPGPQGSSGPQGHMGPQGPPGPQGHIGPQGPPGPQGHLGPQGPPGTQGMQGPPGPRGMQGPPHPHGIQGGPGSQGIQGPVSQGPLMGLNPRGMQGPPGPRENQGPAPQGMIMGHPPQEMRGPHPPGGLLGHGPQEMRGPQEIRGMQGPPPQGSMLGPPQELRGPPGSQSQQGPPQGSLGPPPQGGMQGPPGPQGQQNPARGPHPSQGPIPFQQQKTPLLGDGPRAPFNQEGQSTGPPPLIPGLGQQGAQGRIPPLNPGQGPGPNKGDSRGPPNHHMGPMSERRHEQSGGPEHGPERGPFRGGQDCRGPPDRRGPHPDFPDDFSRPDDFHPDKRFGHRLREFEGRGGPLPQEEKWRRGGPGPPFPPDHREFSEGDGRGAARGPPGAWEGRRPGDERFPRDPEDPRFRGRREESFRRGAPPRHEGRAPPRGRDGFPGPEDFGPEENFDASEEAARGRDLRGRGRGTPRGGRKGLLPTPDEFPRFEGGRKPDSWDGNREPGPGHEHFRDTPRPDHPPHDGHSPASRERSSSLQGMDMASLPPRKRPWHDGPGTSEHREMEAPGGPSEDRGGKGRGGPGPAQRVPKSGRSSSLDGEHHDGYHRDEPFGGPPGSGTPSRGGRSGSNWGRGSNMNSGPPRRGASRGGGRGR [WDR33]	-0.421	49.3	49.8	0.257	0.933	1.06
MADSRDPASDQMQHWKEQRAAQKADVLTTGAGNPVGDKLNVITVGPRGPLLVQDVVFTDEMAHFDRERIPERVVHAKGAGAFGYFEVTHDITKYSKAKVFEHIGKKTPIAVRFSTVAGESGSADTVRDPRGFAVKFYTEDGNWDLVGNNTPIFFIRDPILFPSFIHSQKRNPQTHLKDPDMVWDFWSLRPESLHQVSFLFSDRGIPDGHRHMNGYGSHTFKLVNANGEAVYCKFHYKTDQGIKNLSVEDAARLSQEDPDYGIRDLFNAIATGKYPSWTFYIQVMTFNQAETFPFNPFDLTKVWPHKDYPLIPVGKLVLNRNPVNYFAEVEQIAFDPSNMPPGIEASPDKMLQGRLFAYPDTHRHRLGPNYLHIPVNCPYRARVANYQRDGPMCMQDNQGGAPNYYPNSFGAPEQQPSALEHSIQYSGEVRRFNTANDDNVTQVRAFYVNVLNEEQRKRLCENIAGHLKDAQIFIQKKAVKNFTEVHPDYGSHIQALLDKYNAEKPKNAIHTFVQSGSHLAAREKANL [CAT]	0.174	58.2	57.9	-0.000938	-2.19	-2.27

— the supplement of paper PMC5998384
